Laboratory results: paper PMC4939597, “Mechanism for insulin-like peptide 5 distinguishing the homologous relaxin family peptide receptor 3 and 4” (Scientific Reports, 2016)
No end group written: not given here.

Tests used:
human RXFP3 [1] = biological target: T1, human RXFP3 (Homo sapiens, UniProt Q9NSD7); assay: Receptor activation assay, CRE-controlled NanoLuc reporter; format: cell-based; conditions: for fold lower activation potency towards RXFP3 than relaxin-3: lower than relaxin-3
T1 construct: expressed in transfected cells; host or cells: HEK293T
T1 sequence (Q9NSD7 1-469): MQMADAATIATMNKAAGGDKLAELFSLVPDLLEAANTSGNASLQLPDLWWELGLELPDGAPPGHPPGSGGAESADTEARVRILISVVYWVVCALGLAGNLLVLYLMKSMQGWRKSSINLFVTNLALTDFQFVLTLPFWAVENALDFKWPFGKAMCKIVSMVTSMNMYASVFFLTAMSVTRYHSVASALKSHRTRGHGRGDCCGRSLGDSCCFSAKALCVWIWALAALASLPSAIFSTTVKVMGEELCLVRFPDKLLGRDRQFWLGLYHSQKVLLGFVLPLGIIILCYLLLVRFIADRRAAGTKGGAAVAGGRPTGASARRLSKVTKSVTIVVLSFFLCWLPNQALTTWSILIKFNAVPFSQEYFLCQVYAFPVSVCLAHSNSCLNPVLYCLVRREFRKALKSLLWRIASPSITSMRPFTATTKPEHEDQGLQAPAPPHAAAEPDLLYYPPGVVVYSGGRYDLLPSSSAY
Procedure: (§1) Figure 4 Receptor activation activities of the mature INSL5 and R3/I5 mutants towards RXFP3 and RXFP4. HEK293T cells transiently cotransfected by human RXFP3 or human RXFP4 and a CRE-controlled NanoLuc reporter were used for the activation assays. The measured data were expressed as mean ± SE (n = 3) and fitted to sigmoidal or linear curves using the software SigmaPlot 10.0.
(§2) The receptor activation assays of the mature INSL5 and R3/I5 mutants were carried out using a cAMP-response element (CRE)-controlled NanoLuc reporter according to our previous procedure. Briefly, HEK293T cells were transiently cotransfected with the expression construct of human RXFP3 or human RXFP4 and the CRE-controlled NanoLuc reporter vector pNL1.2/CRE. Next day, the transfected cells were trypsinised, seeded into a 96-well plate, and continuously cultured for 24–36 h to ~90% confluence. To start activation assay, the medium was removed and the activation solution (serum-free DMEM medium plus 1% bovine serum albumin) containing 1.0 μM of forskolin and varied concentrations of peptide was added (100 μl/well). After being continuously cultured at 37 °C for 4 h, the activation solution was removed and the cells were lysed by lysis solution (100 μl/well, from Promega). The cell lysate was then transferred to a white opaque 96-well plate (50 μl/well), mixed with the freshly diluted substrate (50 μl/well), and bioluminescence was immediately measured on a SpectraMax M5 plate reader (Molecular Devices) using the luminescence mode. The measured bioluminescence data were expressed as mean ± SE (n = 3) and fitted to sigmoidal or linear curves using the SigmaPlot10.0 software.

human RXFP3 [2] = biological target: T1, human RXFP3; assay: Receptor binding assay, competition with NanoLuc-conjugated R3/I5 tracer; conditions: HEK293T cells transiently overexpressing human RXFP3; 0.5 nM NanoLuc-conjugated R3/I5 tracer; 21 °C, 2 h; mean ± SE, n = 3; SEM
Procedure: (§3) Figure 3 Receptor binding activities of the mature INSL5 and R3/I5 mutants towards RXFP3 and RXFP4. A NanoLuc-conjugated R3/I5 peptide was used as tracer and HEK293T cells transiently overexpressing human RXFP3 or human RXFP4 were used as receptor source. The tracer concentration used in these assays was 0.5 nM. The nonspecific binding was obtained by competition with 1.0 μM of relaxin-3. The measured data were expressed as mean ± SE (n = 3) and fitted to sigmoidal curves using the software SigmaPlot 10.0.
(§4) The receptor binding assays of the mature INSL5 and R3/I5 mutants were carried out using a NanoLuc-conjugated R3/I5 peptide as tracer and the human embryonic kidney (HEK) 293T cells transiently overexpressing human RXFP3 or human RXFP4 as receptor source. Nonspecific binding was obtained by competition with 1.0 μM of human relaxin-3. Briefly, HEK293T cells were transiently transfected with the expression construct of human RXFP3 or human RXFP4. Next day, the transfected cells were trypsinised, seeded into a 96-well plate, and continuously cultured for 24–36 h to confluence. To start binding assay, the medium was removed and the binding solution (serum-free DMEM medium plus 1% bovine serum albumin) containing 0.5 nM of the NanoLuc-conjugated R3/I5 tracer and varied concentrations of competitor was added (100 μl/well). After incubation at 21 °C for 2 h, the binding solution was removed and the cells were washed twice by ice-cold phosphate-buffered saline (200 μl/well for each wash). Thereafter, the cells were lysed by lysis solution (100 μl/well, from Promega, Madison, WI, USA) and the cell lysate was transferred to a white opaque 96-well plate (50 μl/well). After mixing with the freshly diluted substrate (50 μl/well), bioluminescence was immediately measured on a SpectraMax M5 plate reader (Molecular Devices, Sunnyvale, CA, USA) using the luminescence mode. The measured bioluminescence data were expressed as mean ± SE (n = 3) and fitted to sigmoidal curves using the SigmaPlot10.0 software.

human RXFP4 [3] = biological target: T2, human RXFP4 (Homo sapiens, UniProt Q8TDU9); assay: as above; conditions: HEK293T cells transiently overexpressing human RXFP4; 0.5 nM NanoLuc-conjugated R3/I5 tracer; 21 °C, 2 h; mean ± SE, n = 3; SEM
T2 construct: expressed in transfected cells; host or cells: HEK293T
T2 sequence (Q8TDU9 whole entry): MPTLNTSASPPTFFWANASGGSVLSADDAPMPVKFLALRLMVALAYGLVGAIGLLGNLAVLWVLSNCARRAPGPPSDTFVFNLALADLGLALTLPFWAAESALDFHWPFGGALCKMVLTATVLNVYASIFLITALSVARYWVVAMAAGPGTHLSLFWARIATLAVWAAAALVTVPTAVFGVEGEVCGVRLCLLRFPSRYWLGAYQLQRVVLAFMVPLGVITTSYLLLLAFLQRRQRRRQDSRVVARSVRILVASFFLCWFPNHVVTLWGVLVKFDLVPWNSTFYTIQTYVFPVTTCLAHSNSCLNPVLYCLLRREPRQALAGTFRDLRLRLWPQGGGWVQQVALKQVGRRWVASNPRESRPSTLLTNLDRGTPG
Procedure: as §3, §4

human RXFP4 [4] = biological target: T2, human RXFP4; assay: Receptor activation assay, CRE-controlled NanoLuc reporter; format: cell-based; conditions: HEK293T cells cotransfected with human RXFP4 and CRE-controlled NanoLuc reporter; 1.0 μM forskolin; 37 °C, 4 h; mean ± SE, n = 3; SEM
Procedure: as §1, §2

| pIC50 RXFP3 (human RXFP3 [2]) | pIC50 RXFP4 (human RXFP4 [3]) | pEC50 RXFP4 (human RXFP4 [4]) | Molecule | fold lower activation potency towards RXFP3 than relaxin-3 (human RXFP3 [1]) | other results |
| --- | --- | --- | --- | --- | --- |
|  |  |  | CC[C@H](C)[C@@H]1NC(=O)[C@H](Cc2ccccc2)NC(=O)[C@H]([C@@H](C)CC)NC(=O)[C@H](C(C)C)NC(=O)[C@H]([C@@H](C)O)NC(=O)[C@H](CCCNC(=N)N)NC(=O)[C@H]([C@@H](C)CC)NC(=O)[C@H](Cc2ccc(O)cc2)NC(=O)[C@H](CCC(=O)O)NC(=O)[C@H](CCCNC(=N)N)NC(=O)CNC(=O)[C@@H](NC(=O)[C@H](CC(C)C)NC(=O)[C@H](CCCNC(=N)N)NC(=O)[C@@H](NC(=O)[C@H](CO)NC(=O)[C@H](Cc2ccc(O)cc2)NC(=O)[C@@H](N)CCCCN)C(C)C)CSSC[C@@H]2NC(=O)[C@@H](NC(=O)[C@H](CC(C)C)NC(=O)[C@@H](NC(=O)[C@H](CCC(N)=O)NC(=O)[C@H](CC(C)C)NC(=O)[C@H](CC(=O)O)NC(=O)[C@@H](N)CCC(N)=O)[C@@H](C)O)CSSC[C@H](NC(=O)CNC(=O)[C@H](CC(=O)O)NC(=O)[C@H]([C@@H](C)O)NC2=O)C(=O)N[C@@H](CO)C(=O)N[C@@H](CCSC)C(=O)N[C@@H]([C@@H](C)O)C(=O)N[C@@H](CC(=O)O)C(=O)N[C@@H](CC(C)C)C(=O)N[C@@H](CO)C(=O)N[C@@H](C)C(=O)N[C@@H](CC(C)C)C(=O)N[C@H](C(=O)O)CSSC[C@@H](C(=O)NCC(=O)NCC(=O)N[C@@H](CO)C(=O)N[C@@H](CCCNC(=N)N)C(=O)N[C@@H](Cc2c[nH]c3ccccc23)C(=O)O)NC1=O | ~ 20 fold | fold higher activation potency towards RXFP3 than its parent mutant (human RXFP3 [1]; higher than the 4-mutation INSL5): ~ 5 fold |
|  |  |  | CC[C@H](C)[C@@H]1NC(=O)[C@H](Cc2ccccc2)NC(=O)[C@H]([C@@H](C)CC)NC(=O)[C@H](C(C)C)NC(=O)[C@H]([C@@H](C)O)NC(=O)[C@H](CCCNC(=N)N)NC(=O)[C@H]([C@@H](C)CC)NC(=O)[C@H](Cc2ccc(O)cc2)NC(=O)[C@H](CCC(=O)O)NC(=O)[C@H](CCCNC(=N)N)NC(=O)CNC(=O)[C@@H](NC(=O)[C@H](CC(C)C)NC(=O)[C@H](CCCNC(=N)N)NC(=O)[C@@H](NC(=O)[C@H](CO)NC(=O)[C@H](CCC(=O)O)NC(=O)[C@@H](N)CCCCN)C(C)C)CSSC[C@@H]2NC(=O)[C@@H](NC(=O)[C@H](CC(C)C)NC(=O)[C@@H](NC(=O)[C@H](CCC(N)=O)NC(=O)[C@H](CC(C)C)NC(=O)[C@H](CC(=O)O)NC(=O)[C@@H](N)CCC(N)=O)[C@@H](C)O)CSSC[C@H](NC(=O)CNC(=O)[C@H](CC(=O)O)NC(=O)[C@H]([C@@H](C)O)NC2=O)C(=O)N[C@@H](CO)C(=O)N[C@@H](CCSC)C(=O)N[C@@H]([C@@H](C)O)C(=O)N[C@@H](CC(=O)O)C(=O)N[C@@H](CC(C)C)C(=O)N[C@@H](CO)C(=O)N[C@@H](C)C(=O)N[C@@H](CC(C)C)C(=O)N[C@H](C(=O)O)CSSC[C@@H](C(=O)NCC(=O)NCC(=O)N[C@@H](CO)C(=O)N[C@@H](CCCNC(=N)N)C(=O)N[C@@H](Cc2c[nH]c3ccccc23)C(=O)O)NC1=O [[L(B9)R,Y(B17)F,A(B20)G,S(B21)G]INSL5] | ~ 100 fold |  |
| 8.38 ± 0.03 | 7.83 ± 0.04 | 8.16 ± 0.04 | [R(B12)L,G(B23)A,G(B24)S]R3/I5: recombinant mature two-chain R3/I5 mutant (chain 1 RAAPYGVRLCGLEFIRAVIFTCASSRW; chain 2 QDLQTLCCTDGCSMTDLSALC; disulfide (positions not given here); not fully specified; also: A-chain N-terminal pyroglutamate likely) |  |  |
| 8.45 ± 0.04 | 7.91 ± 0.02 | 9.02 ± 0.05 | [F(B20)Y,G(B23)A,G(B24)S]R3/I5: recombinant mature two-chain R3/I5 mutant (chain 1 RAAPYGVRLCGREFIRAVIYTCASSRW; chain 2 QDLQTLCCTDGCSMTDLSALC; disulfide (positions not given here); not fully specified; also: A-chain N-terminal pyroglutamate likely) |  |  |
|  |  |  | CC[C@H](C)[C@@H]1NC(=O)[C@H](Cc2ccccc2)NC(=O)[C@H](CCC(=O)O)NC(=O)[C@H](CCCNC(=N)N)NC(=O)CNC(=O)[C@@H](NC(=O)[C@H](CC(C)C)NC(=O)[C@H](CCCCN)NC(=O)[C@@H](NC(=O)CNC(=O)[C@H](CCC(=O)O)NC(=O)[C@@H]2CCCN2C(=O)[C@H](C)NC(=O)[C@H](C)NC(=O)[C@@H](N)CCCNC(=N)N)C(C)C)CSSC[C@@H]2NC(=O)[C@@H](NC(=O)[C@H](CC(C)C)NC(=O)[C@@H](NC(=O)[C@H](CCC(N)=O)NC(=O)[C@H](CC(C)C)NC(=O)[C@H](CC(=O)O)NC(=O)[C@@H](N)CCC(N)=O)[C@@H](C)O)CSSC[C@H](NC(=O)CNC(=O)[C@H](CC(=O)O)NC(=O)[C@H]([C@@H](C)O)NC2=O)C(=O)N[C@@H](CO)C(=O)N[C@@H](CCSC)C(=O)N[C@@H]([C@@H](C)O)C(=O)N[C@@H](CC(=O)O)C(=O)N[C@@H](CC(C)C)C(=O)N[C@@H](CO)C(=O)N[C@@H](C)C(=O)N[C@@H](CC(C)C)C(=O)N[C@H](C(=O)O)CSSC[C@@H](C(=O)NCC(=O)NCC(=O)N[C@@H](CO)C(=O)N[C@@H](CCCNC(=N)N)C(=O)N[C@@H](Cc2c[nH]c3ccccc23)C(=O)O)NC(=O)[C@H]([C@@H](C)O)NC(=O)[C@H](Cc2ccccc2)NC(=O)[C@H]([C@@H](C)CC)NC(=O)[C@H](C(C)C)NC(=O)[C@H](C)NC(=O)[C@H](CCCNC(=N)N)NC1=O [[Y(B5)E]R3/I5] |  | fold lower activation potency towards RXFP3 compared with wild-type R3/I5 (human RXFP3 [1]; lower than wild-type R3/I5): ~ 6 fold |
